Changes are numbered by the printed parent chain. In names and notes the source's numbering stands.
B1: PepX (x-prolyl aminodipeptidase) from Lactobacillus helveticus (Lactobacillus helveticus) (protein)
chain: MKYNQYAYVETDFQQQVKELIDINFLPKNYQVWDFSSLLAKLVKNAIAEAKTDAAKNAKLAEFAVSDHQTLADFLKEKPTEIGTKQFYNVALQLLGYHVHYDYDFADPTGFMQRNALPFLQDISDNQKLISAFYRLLNTRAKNGQILLDVMAGKGYFTQFWGQNKFKFFNGKSIPVFDTNKVIREVVYVETDLDTDHDGKSDLIQVTVFRPEETNKGLKVPALYTASPYFGGIIANEKRNHNVDENLSDSTEWNDPQYVHSPIVKAEKPDGSSRPATEEAVHKSSYPLNEYMLARGFASVFAGAIGTRGSDGVRITGAPEETESAAAVIEWLHGDRVAYTDRTRTVQTTADWCNGNIGMTGRSYLGTLQIAIATTGVKGLKTVVSEAAISSWYDYYREHGLVIAPEACQGEDLDLLAETCQSNLWDAGSYLKIKPEYDKMQKQLREKEDRNTGQYSDFWEARNYRHHADGIKCSWISVHGLNDWNVKPKNVYKIWQLVKKMPMKHHLFLHQGPHYNMNNLVSIDFTDLMNLWFVHELLGIENNAYNQWPTVMIQDNLQADKWHEEPDWSNDLGQEKIYYPTDEGELFQDGNGKAQKSFTDVGGIEFKKAGISESDWQYKFICGDEKWAKPSLRFETDEFTHPTTIVGRPEVKVRVSASLPKGEISVALVELGERQRLTATPKFLMHGGQELGYRFGTDTLQEFVPDKKTKAKLITKAHMNLQNFKDMKKPEAIDADKFYDLDFLLQPTYYTIPSGSKLALIIYSTDQGMTKRPLEDETYTIDLANTEIKFYEK
notes: recombinant, N-terminal six-histidine tag, pET14b, E. coli BL21(DE3)pLysS; PepX known to form dimers
B2: PepX (x-prolyl aminodipeptidase) from Lactobacillus helveticus (Lactobacillus helveticus; D196A) (protein)
chain: B1 chain with D196A
notes: as for B1

Substrate: NCC(=O)N1CCC[C@H]1C(=O)Nc1ccc([N+](=O)[O-])cc1
Assay: purified protein
Assay type: biochemical, Lactobacillus helveticus
Settings: 50 mM MES pH 6.5, 40 °C, 200 nM enzyme, 75-500 μM substrate

Protein	Km [µM]
B1	302
B2	315

From paper PMC10536834, “Elucidating the Role of a Calcium-Binding Loop in an x-Prolyl Aminodipeptidase from Lb. helveticus” (ACS Omega, 2023)
